Here are results for eight molecules from US20210292414A1 (H LUNDBECK A S, published 2021).

The chains are these.
T1: Sortilin SORTECDBAP_hB12390 (human/tetraodon chimera)
T1 construct: Shuffle construct: chimeric human/tetraodon Sortilin ECD with BAP tag
T1 chain: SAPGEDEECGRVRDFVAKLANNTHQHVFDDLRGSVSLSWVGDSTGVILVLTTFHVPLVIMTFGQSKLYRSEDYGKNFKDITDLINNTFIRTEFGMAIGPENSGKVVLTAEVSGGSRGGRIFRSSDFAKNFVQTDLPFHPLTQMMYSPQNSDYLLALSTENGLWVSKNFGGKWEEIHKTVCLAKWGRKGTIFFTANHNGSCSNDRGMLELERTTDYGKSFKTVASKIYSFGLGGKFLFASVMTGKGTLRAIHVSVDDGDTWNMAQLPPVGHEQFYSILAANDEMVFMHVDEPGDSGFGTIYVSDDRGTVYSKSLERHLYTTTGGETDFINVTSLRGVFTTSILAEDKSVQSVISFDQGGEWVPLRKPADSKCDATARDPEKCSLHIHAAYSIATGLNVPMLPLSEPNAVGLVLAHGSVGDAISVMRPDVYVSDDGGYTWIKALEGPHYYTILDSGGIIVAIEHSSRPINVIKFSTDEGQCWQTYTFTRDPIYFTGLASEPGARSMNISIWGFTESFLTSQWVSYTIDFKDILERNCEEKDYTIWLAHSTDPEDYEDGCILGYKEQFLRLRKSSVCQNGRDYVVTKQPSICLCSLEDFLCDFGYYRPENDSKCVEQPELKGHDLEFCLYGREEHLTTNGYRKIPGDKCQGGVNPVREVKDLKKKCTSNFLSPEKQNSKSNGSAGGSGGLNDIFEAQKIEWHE

T2: Sortilin SORTECDBAP_hB45678 (human/tetraodon chimera)
T2 construct: Shuffle construct: chimeric human/tetraodon Sortilin ECD with BAP tag
T2 chain: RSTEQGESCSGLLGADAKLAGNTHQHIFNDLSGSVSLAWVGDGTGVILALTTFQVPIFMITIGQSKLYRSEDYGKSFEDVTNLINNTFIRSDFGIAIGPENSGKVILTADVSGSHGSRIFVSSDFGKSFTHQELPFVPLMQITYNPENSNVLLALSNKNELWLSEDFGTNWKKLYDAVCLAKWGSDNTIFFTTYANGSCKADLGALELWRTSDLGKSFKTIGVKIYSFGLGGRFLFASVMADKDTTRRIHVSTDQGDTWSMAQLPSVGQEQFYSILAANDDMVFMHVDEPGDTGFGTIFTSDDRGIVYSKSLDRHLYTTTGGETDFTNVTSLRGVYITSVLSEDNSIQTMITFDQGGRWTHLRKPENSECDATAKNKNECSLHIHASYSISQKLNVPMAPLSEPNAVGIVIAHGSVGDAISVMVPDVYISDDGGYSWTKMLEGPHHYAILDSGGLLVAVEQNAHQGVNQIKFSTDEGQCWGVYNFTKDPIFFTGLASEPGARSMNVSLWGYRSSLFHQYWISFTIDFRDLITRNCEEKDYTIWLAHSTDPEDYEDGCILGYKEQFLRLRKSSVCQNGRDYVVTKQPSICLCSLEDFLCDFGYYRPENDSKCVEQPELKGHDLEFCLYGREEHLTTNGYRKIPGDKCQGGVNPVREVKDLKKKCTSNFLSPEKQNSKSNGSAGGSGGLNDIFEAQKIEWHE

T3: hBack
T3 chimeric human/tetraodon Sortilin extracellular region, BAP tag: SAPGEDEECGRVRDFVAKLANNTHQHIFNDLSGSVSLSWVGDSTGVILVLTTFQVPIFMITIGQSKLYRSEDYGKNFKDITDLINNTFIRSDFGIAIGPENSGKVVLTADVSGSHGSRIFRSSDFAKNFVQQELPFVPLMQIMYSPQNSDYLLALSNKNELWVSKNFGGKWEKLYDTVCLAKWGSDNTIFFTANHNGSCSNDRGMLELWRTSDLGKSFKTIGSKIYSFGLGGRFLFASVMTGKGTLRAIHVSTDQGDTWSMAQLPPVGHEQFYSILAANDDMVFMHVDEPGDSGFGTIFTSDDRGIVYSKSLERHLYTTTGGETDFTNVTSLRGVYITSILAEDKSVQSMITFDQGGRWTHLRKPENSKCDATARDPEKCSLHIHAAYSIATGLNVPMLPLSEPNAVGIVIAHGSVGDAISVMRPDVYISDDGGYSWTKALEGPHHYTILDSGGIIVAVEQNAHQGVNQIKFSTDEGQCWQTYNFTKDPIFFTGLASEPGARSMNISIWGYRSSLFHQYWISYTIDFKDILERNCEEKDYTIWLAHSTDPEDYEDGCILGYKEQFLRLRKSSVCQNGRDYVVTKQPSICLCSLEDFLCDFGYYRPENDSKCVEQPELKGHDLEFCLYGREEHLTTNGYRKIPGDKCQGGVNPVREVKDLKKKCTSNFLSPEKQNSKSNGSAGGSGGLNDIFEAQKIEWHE

T4: hRim
T4 chimeric human/tetraodon Sortilin extracellular region, BAP tag: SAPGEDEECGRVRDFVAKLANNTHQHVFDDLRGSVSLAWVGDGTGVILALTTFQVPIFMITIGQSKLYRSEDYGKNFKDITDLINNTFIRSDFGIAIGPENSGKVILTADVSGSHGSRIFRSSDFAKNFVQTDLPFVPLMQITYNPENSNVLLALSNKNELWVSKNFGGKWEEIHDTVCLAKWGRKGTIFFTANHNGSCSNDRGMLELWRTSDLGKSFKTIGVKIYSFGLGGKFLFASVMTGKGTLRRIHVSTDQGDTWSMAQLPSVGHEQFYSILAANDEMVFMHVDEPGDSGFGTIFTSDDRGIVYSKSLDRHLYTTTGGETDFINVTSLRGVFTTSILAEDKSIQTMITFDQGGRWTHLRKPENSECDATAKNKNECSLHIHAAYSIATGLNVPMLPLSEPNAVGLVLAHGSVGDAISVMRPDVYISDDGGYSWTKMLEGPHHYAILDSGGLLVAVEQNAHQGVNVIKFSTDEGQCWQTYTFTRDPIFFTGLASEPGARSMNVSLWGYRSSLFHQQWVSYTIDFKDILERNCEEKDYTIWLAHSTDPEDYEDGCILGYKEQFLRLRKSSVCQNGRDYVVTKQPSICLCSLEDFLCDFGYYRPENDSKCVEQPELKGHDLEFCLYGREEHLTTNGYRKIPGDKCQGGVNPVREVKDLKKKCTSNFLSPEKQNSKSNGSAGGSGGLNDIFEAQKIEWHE

B1: Antibody 6003-1277 (antibody, V domains shown)
VH: QVQLVQSGAEVKKPGASVKVSCKTSGYTFTHYGISWVRQAPGQGLEWMGWINTYNGNTKYAQKLQGRVTMTTDTSTSTAYMELRSLRSDDTAVYYCASLGRNFDYWGQGTLVTVSS
VL: not shown
B2: Antibody 6003-381 (antibody, human IgG1, V domains shown)
VH: QVQLVESGGGVVQPGRSLRLSCAASGFTFSNYVMHWVRQAPGKGLEWVAAISYNGNNKYYADSVKGRFTISRDNSKNTLYLQMNSLRAEDTAVSYCAKGLNDAFDIWGQGTMVTVSS
VL: not shown
B3: Antibody 6003-030 (antibody, human IgG1, V domains shown)
VH: EVQVLESGGGLVQPGGSLRLSCAASGFTFSSYAMSWVRQAPGKGLEWVSTISGRGGNTYYADSVKGRFTISRDNSKNTLYLQMDSLRAEDTAVYYCAIIPSLYWYFDLWGRGTLVTVSS
VL: EIVLTQSPATLSLSPGERATLSCRASQSVSSYLAWYQQKPGQAPRLLIYDASNRATGIPARFSGSGSGTDFTLTISSLEPEDFAVYYCQQRSNWPLTFGGGTKVEIK
notes: Human antibody (HuMab); also called antibody 30; mAb30
B4: Antibody 6003-028 (antibody, human IgG1, V domains shown)
VH: B3 VH with V4L, N57S, D84N, I98N, I99L, P100Y, L102N
VL: B3 VL with Y32F
B5: Antibody 6003-056 (antibody, human IgG1, V domains shown)
VH: B3 VH with A23V, S35H, T50A, N57S, D84N
VL: B3 VL with Y32F
B6: Antibody 6003-083 (antibody, human IgG1, V domains shown)
VH: B3 VH with V4L, N57S, D84N, I99V, P100A, S101T, L102M
VL: B3 VL with L96I, G100Q, K103R, V104L
B7: Antibody 6003-1286 (antibody, human IgG1, V domains shown)
VH: B3 VH with V4L, D84N, T91A, I98N, P100Y, L102H
VL: B3 VL with S30N
B8: IgG1-6003-408 (antibody, V domains shown)
VH: EVQLVESGGGLVKPGGSLRLSCAASGFTFSSYSMNWVRQAPGKGLEWVSSISSSSSYIYYADSVKGRFTISRDNAKNSLYLQMNSLRAEDTAVYYCARRRIAAAGTGYGAFDIWGQGTMVTVSS
VL: ARQLTQSPSSLSASVGDRVTITCRASQGITSALAWYQQKPGKVPKLLIYDASSLESGVPSRFSGSGSGTDFTLTISSLQPEDFATYYCQQFNGYPMFSFGQGTKLEII
notes: also called Antibody 6003-408

Changes are numbered by the printed parent chain.

The first experiment concerns the target T1, Sortilin SORTECDBAP_hB12390. Briefly: BLI (Octet384RED).
B1: the EC50 was determined as 3.63 ng/mL.

In the case of B2, the EC50 stood at 1.93 ng/mL.

Turning to B3, the concentration giving a half-maximal response (EC50) is 0.82 ng/mL.

B4 registered an EC50 of 1.86 ng/mL.

For B5, the midpoint of the response, the EC50, lay at 1.42 ng/mL.

B6 registered an EC50 of 0.86 ng/mL. This EC50 is about 1.7-fold lower than that of the molecule before.

The molecule B7 displayed an EC50 of 0.86 ng/mL.

Regarding B8, the midpoint of the response, the EC50, lay at 2.21 ng/mL.

In a further experiment the target is T2, Sortilin SORTECDBAP_hB45678. Briefly: BLI (Octet384RED).
The molecule B1 returned an EC50 of 4.3 ng/mL.

Consider B2, for which a half-maximal effect (EC50) was put at 2 ng/mL.

Molecule B3 came in with an EC50 of 0.85 ng/mL.

Turning to B4, the EC50 is 1.96 ng/mL.

As for B5, it took 1.1 ng/mL to reach a half-maximal effect (EC50). This EC50 lies about 1.8-fold lower than the previous one.

B6 displayed an EC50 of 0.92 ng/mL.

On to B7, for which the response was half-maximal at 1.02 ng/mL (EC50).

For the molecule B8, the EC50 came to 2.58 ng/mL.

A further experiment concerns the target T3, hBack. Briefly: BLI (Octet384RED).
B1: the EC50 came out at 4.07 ng/mL.

Turning to B2, the response was half-maximal at 1.6 ng/mL (EC50). This EC50 is about 2.5-fold lower than that of the molecule before.

Regarding B3, it took 0.85 ng/mL to reach a half-maximal effect (EC50). Against the preceding molecule, the EC50 is about 1.9-fold lower.

The molecule B4 displayed an EC50 of 1.87 ng/mL.

Molecule B5 had an EC50 of 1.14 ng/mL.

B6: the EC50 is 1.34 ng/mL.

As to B7, the response was half-maximal at 1.02 ng/mL (EC50).

The molecule B8 yielded an EC50 of 2.37 ng/mL.

A further experiment has as its target T4, hRim. Briefly: BLI (Octet384RED).
B1: the EC50 amounted to 4.34 ng/mL.

As for B2, a half-maximal response (EC50) required 2.28 ng/mL.

On to B3, for which a half-maximal effect (EC50) was put at 0.86 ng/mL.

Consider B4, for which the EC50 came out at 2.04 ng/mL.

Consider B5, for which the EC50 turned out to be 1.24 ng/mL.

Regarding B6, a half-maximal response (EC50) required 0.99 ng/mL.

Regarding B7, a half-maximal effect (EC50) was put at 1.05 ng/mL.

For the molecule B8, the half-maximal effective concentration (EC50) amounted to 2.78 ng/mL.
